Data taken from US6303339A, “DNA segments encoding autoimmune polypeptide epitopes of Ro/ss-A antigen” (Board of Regents, The University of Texas System, priority 1991, dated 2001).
Values belong to the molecule of their own block, whether it stands above or below them.

Tests used:
[1] = cited from earlier work
[2] = tested on: anti-Ro/SS-A antibodies (human autoimmune serum); assay: ELISA, immobilized peptide reacted with human autoimmune anti-Ro/SS-A serum; format: binding
Excerpt: Human antisera. Anti-Ro/SS-A sera were selected by the presence of a single precipitin line in Ouchterlony analysis having complete identify with prototypic sera used in studies of Lieu et al. (17). The absence of antibodies to other nuclear antigens such as La/SS-B, U1 -RNP and Sm was also confirmed by ELISA. Monospecific anti-Sm and anti-La/SS-B human autoimmune sera were originally obtained from the laboratory of Dr. E. M. Tan (Scripps Research Institute, La Jolla, Calif.).
The native Ro/SS-A antigen (5 ug/ml) or synthetic peptide (10 ug/ml) in PBS was added to wells of a microtiter plate and incubated 16 hours at 4° C. The plates were washed with PBS-Tween and the remaining sites were coated with 1% BSA for 1 hour. After washing 3 times with PBS-Tween, sera diluted with 1% BSA, 0.5% bovine gamma globulin (BGG) in PBS-Tween were added and incubated for 2 hours. The plates were then washed 3 times with PBS-Tween. Peroxidase conjugated goat-anti-human IgG diluted 1:3000 in PBS-Tween containing 1% BSA and 0.5% BGG was added and incubated for 2 hours at room temperature. The plates were washed in a similar manner. […] The optical density was measured using a Titertek Multiskan brand ELISA plate reader.

Molecule: native purified protein: native 60 kD Ro protein purified from the human Wil-2 cell line
isoelectric point measured from the native purified protein [1]: 4.67

binding to anti-Ro/SS-A serum in ELISA (in words) [2]: did not react
B1: ribonuclease A (protein, UniProt P61823 27-150, looked up)
Ribonuclease pancreatic: KETAAAKFERQHMDSSTSAASSSNYCNQMMKSRNLTKDRCKPVNTFVHESLADVQAVCSQKNVACKNGQTNCYQSYSTMSITDCRETGSSKYPNCAYKTTQANKHIIVACEGNPYVPVHFDASV
notes: control polypeptide in ELISA
